Reference: paper PMC11118710, “GLP-1 and Its Derived Peptides Mediate Pain Relief Through Direct TRPV1 Inhibition Without Affecting Thermoregulation” (Research Square, 2024)

Molecular target: human transient receptor potential vanilloid 1 (TRPV1) (human) (UniProt Q8NER1)
Sequence (Q8NER1 whole entry): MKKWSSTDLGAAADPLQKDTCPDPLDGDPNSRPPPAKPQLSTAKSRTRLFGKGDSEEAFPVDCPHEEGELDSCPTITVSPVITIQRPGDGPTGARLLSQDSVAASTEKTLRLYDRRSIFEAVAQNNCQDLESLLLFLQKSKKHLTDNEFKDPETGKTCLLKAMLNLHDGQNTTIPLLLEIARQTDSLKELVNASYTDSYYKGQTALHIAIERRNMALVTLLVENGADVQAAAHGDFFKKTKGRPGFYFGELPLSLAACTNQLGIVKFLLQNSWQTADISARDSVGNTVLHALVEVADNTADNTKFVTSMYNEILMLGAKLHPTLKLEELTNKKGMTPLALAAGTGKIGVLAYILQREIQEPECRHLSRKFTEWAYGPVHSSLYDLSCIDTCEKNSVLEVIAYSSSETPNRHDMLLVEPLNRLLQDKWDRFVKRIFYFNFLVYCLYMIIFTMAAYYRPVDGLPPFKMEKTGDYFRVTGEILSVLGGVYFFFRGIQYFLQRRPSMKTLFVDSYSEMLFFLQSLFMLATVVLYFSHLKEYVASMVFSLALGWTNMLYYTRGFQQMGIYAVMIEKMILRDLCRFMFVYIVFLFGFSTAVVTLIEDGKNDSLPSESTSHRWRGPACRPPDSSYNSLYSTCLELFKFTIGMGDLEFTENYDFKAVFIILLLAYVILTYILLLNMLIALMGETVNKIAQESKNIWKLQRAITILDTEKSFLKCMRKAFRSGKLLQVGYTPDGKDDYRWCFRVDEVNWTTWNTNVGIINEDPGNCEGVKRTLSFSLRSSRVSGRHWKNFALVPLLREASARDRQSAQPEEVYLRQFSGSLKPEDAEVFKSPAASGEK

In the case of “exendin-4 (from UniProt P26349 48-87) (peptide)”, the IC50 of inhibition of the CAP (100 nM)-induced calcium response in CHO K1 cells expressing human TRPV1 is reported as 62.2 nM.
